Source: the Immune Epitope Database (IEDB)

Columns and labels:
HLA-B*53:01 = assay: IEDB peptide-MHC binding, purified MHC/competitive/radioactivity; filed as Kd, often an IC50 or EC50 that approximates it; ≥ and ≤ were set here for values at or beyond the usual limits of such assays
HLA-B*54:01 = assay: as above
HLA-B*07:02 [1] = assay: as above
HLA-B*35:01 = assay: as above
HLA-B*51:01 = assay: as above
HLA-B*58:01 [2] = assay: as above
HLA-B*08:01 [3] = assay: as above
HLA-A*69:01 = assay: IEDB peptide-MHC binding, purified MHC/direct/fluorescence; filed as Kd, often an IC50 or EC50 that approximates it; ≥ and ≤ were set here for values at or beyond the usual limits of such assays; details: source organism: Campylobacter jejuni RM1221
HLA-A*26:01 = assay: as above; details: source organism: Campylobacter jejuni RM1221
HLA-B*15:01 = assay: as above; details: source organism: Campylobacter jejuni RM1221
HLA-B*58:01 [4] = assay: as above; details: source organism: Campylobacter jejuni RM1221
HLA-B*40:01 = assay: as above; details: source organism: Campylobacter jejuni RM1221
HLA-A*02:01 [5] = assay: as above; details: source organism: Campylobacter jejuni RM1221
HLA-B*07:02 [6] = assay: as above; details: source organism: Campylobacter jejuni RM1221
HLA-A*03:01 [7] = assay: as above; details: source organism: Campylobacter jejuni RM1221
HLA-A*24:03 = assay: as above; details: source organism: Campylobacter jejuni RM1221
HLA-B*08:01 [8] = assay: as above; details: source organism: Campylobacter jejuni RM1221
HLA-A*11:01 [9] = assay: as above; details: source organism: Campylobacter jejuni RM1221
HLA-A*01:01 [10] = assay: as above; details: source organism: Campylobacter jejuni
HLA-B*27:05 = assay: as above; details: source organism: Campylobacter jejuni RM1221
HLA-A*31:01 [11] = assay: as above; details: source organism: Campylobacter jejuni RM1221
HLA-B*44:02 = assay: as above; details: source organism: Campylobacter jejuni RM1221
HLA-A*02:06 = assay: IEDB peptide-MHC binding, purified MHC/competitive/radioactivity; filed as Kd, often an IC50 or EC50 that approximates it; ≥ and ≤ were set here for values at or beyond the usual limits of such assays
HLA-A*33:01 = assay: as above
HLA-A*02:03 = assay: as above
HLA-A*03:01 [12] = assay: as above
HLA-A*11:01 [13] = assay: as above
HLA-A*31:01 [14] = assay: as above
HLA-A*02:02 = assay: as above
HLA-A*68:01 = assay: as above
HLA-A*68:02 = assay: as above
HLA-A*02:01 [15] = assay: as above
HLA-A*01:01 [16] = assay: as above; details: source organism: Hepacivirus hominis
[17] = source organism: SARS coronavirus Tor2
[18] = source organism: Vaccinia virus WR
[19] = source organism: Dengue virus 4 Dominica/814669/1981
[20] = source organism: Dengue virus 2 Jamaica/1409/1983
[21] = source organism: Mammarenavirus whitewaterense
[22] = source organism: Hepatitis C virus (isolate H)
[23] = source organism: Triticum aestivum
[24] = source organism: Dengue virus 4 Philippines/H241/1956
[25] = source organism: Hepacivirus hominis
[26] = source organism: Mammarenavirus tacaribeense

APVSAMVRM
Kd (HLA-B*53:01; [17]): 0.749 µM
Kd (HLA-B*54:01; [17]): ≥ 23.2 µM
Kd (HLA-B*07:02 [1]; [17]): 0.158 µM
Kd (HLA-B*35:01; [17]): 0.433 µM
Kd (HLA-B*51:01; [17]): 1.77 µM

DPEKFNARM
Kd (HLA-B*53:01; [18]): 1.3 µM
Kd (HLA-B*54:01; [18]): ≥ 78.1 µM
Kd (HLA-B*07:02 [1]; [18]): ≥ 66.7 µM
Kd (HLA-B*35:01; [18]): 0.948 µM
Kd (HLA-B*51:01; [18]): 17 µM

FGSVGGLFTS
Kd (HLA-B*58:01 [2]; [19]): 0.22 µM

FITDNVHTW
Kd (HLA-B*53:01; [20]): 0.0887 µM
Kd (HLA-B*58:01 [2]; [20]): 0.0175 µM

FPLKLRGTAV
Kd (HLA-B*53:01; [17]): 4.48 µM
Kd (HLA-B*54:01; [17]): 0.00106 µM
Kd (HLA-B*07:02 [1]; [17]): 0.135 µM
Kd (HLA-B*35:01; [17]): 4.53 µM
Kd (HLA-B*51:01; [17]): 0.659 µM

FVVDNVHTW
Kd (HLA-B*53:01; [19]): 0.00845 µM
Kd (HLA-B*58:01 [2]; [19]): 0.106 µM

GPFEASWAI
Kd (HLA-B*53:01; [21]): 0.254 µM
Kd (HLA-B*54:01; [21]): 0.311 µM
Kd (HLA-B*07:02 [1]; [21]): 0.411 µM
Kd (HLA-B*35:01; [21]): 0.801 µM
Kd (HLA-B*51:01; [21]): 1 µM

HPALVFDIT
Kd (HLA-B*53:01; [22]): 0.65 µM
Kd (HLA-B*54:01; [22]): 0.000285 µM
Kd (HLA-B*08:01 [3]; [22]): 0.974 µM
Kd (HLA-B*35:01; [22]): 0.00567 µM
Kd (HLA-B*51:01; [22]): 7.09 µM

IPCMDVVL
Kd (HLA-B*53:01; [23]): ≥ 41.1 µM
Kd (HLA-B*54:01; [23]): ≥ 87.7 µM
Kd (HLA-B*07:02 [1]; [23]): ≥ 40.4 µM
Kd (HLA-B*35:01; [23]): 16.2 µM
Kd (HLA-B*51:01; [23]): 1.3 µM

IPKGIMMNV
Kd (HLA-B*53:01; [17]): ≥ 23.8 µM
Kd (HLA-B*54:01; [17]): 0.0147 µM
Kd (HLA-B*07:02 [1]; [17]): 0.128 µM
Kd (HLA-B*35:01; [17]): ≥ 20.9 µM
Kd (HLA-B*51:01; [17]): 8.27 µM

ISSTPFAEYT
Kd (HLA-B*58:01 [2]; [24]): 2.05 µM

KNDAVYIGY
Kd (HLA-A*69:01): ≥ 20 µM
Kd (HLA-A*26:01): ≥ 20 µM
Kd (HLA-B*15:01): ≥ 20 µM
Kd (HLA-B*58:01 [4]): ≥ 20 µM
Kd (HLA-B*40:01): ≥ 20 µM
Kd (HLA-A*02:01 [5]): ≥ 20 µM
Kd (HLA-B*07:02 [6]): ≥ 20 µM
Kd (HLA-A*03:01 [7]): ≥ 20 µM
Kd (HLA-A*24:03): ≥ 20 µM
Kd (HLA-B*08:01 [8]): ≥ 20 µM
Kd (HLA-A*11:01 [9]): ≥ 20 µM
Kd (HLA-A*01:01 [10]): 19.2 µM
Kd (HLA-B*27:05): ≥ 20 µM
Kd (HLA-A*31:01 [11]): ≥ 20 µM
Kd (HLA-B*44:02): ≥ 20 µM

KPTESACSSL
Kd (HLA-B*53:01; [17]): 8.38 µM
Kd (HLA-B*54:01; [17]): ≥ 50.4 µM
Kd (HLA-B*07:02 [1]; [17]): 0.0584 µM
Kd (HLA-B*35:01; [17]): 16.6 µM
Kd (HLA-B*51:01; [17]): 4.23 µM

LPYPDPSRIL
Kd (HLA-B*53:01; [17]): 8.29 µM
Kd (HLA-B*54:01; [17]): 9.53 µM
Kd (HLA-B*07:02 [1]; [17]): 3.79 µM
Kd (HLA-B*35:01; [17]): ≥ 27 µM
Kd (HLA-B*51:01; [17]): 1 µM

LSIPPTAGI
Kd (HLA-B*58:01 [2]; [24]): 0.0241 µM

MPEKRNVVV
Kd (HLA-B*53:01; [18]): 0.4 µM
Kd (HLA-B*54:01; [18]): 0.033 µM
Kd (HLA-B*07:02 [1]; [18]): 0.0018 µM
Kd (HLA-B*35:01; [18]): 0.412 µM
Kd (HLA-B*51:01; [18]): 0.127 µM

MPYNILDRII
Kd (HLA-B*53:01; [18]): 0.0455 µM
Kd (HLA-B*54:01; [18]): 0.0084 µM
Kd (HLA-B*07:02 [1]; [18]): 0.265 µM
Kd (HLA-B*35:01; [18]): 1.64 µM
Kd (HLA-B*51:01; [18]): 0.124 µM

QIFEVYWYL
Kd (HLA-B*53:01; [18]): 1.4 µM
Kd (HLA-A*02:06; [18]): 0.0192 µM
Kd (HLA-A*33:01; [18]): 0.775 µM
Kd (HLA-A*02:03; [18]): 0.186 µM
Kd (HLA-B*54:01; [18]): ≥ 5 µM
Kd (HLA-B*07:02 [1]; [18]): 16.1 µM
Kd (HLA-A*03:01 [12]; [18]): 1.06 µM
Kd (HLA-A*11:01 [13]; [18]): 0.0673 µM
Kd (HLA-A*31:01 [14]; [18]): 0.143 µM
Kd (HLA-B*35:01; [18]): 6.5 µM
Kd (HLA-A*02:02; [18]): 0.00112 µM
Kd (HLA-B*51:01; [18]): 5.54 µM
Kd (HLA-A*68:01; [18]): 0.873 µM
Kd (HLA-A*68:02; [18]): 0.00889 µM

QPFPPQQPY
Kd (HLA-B*53:01; [23]): ≥ 78.2 µM
Kd (HLA-B*54:01; [23]): ≥ 78.1 µM
Kd (HLA-B*07:02 [1]; [23]): ≥ 77.5 µM
Kd (HLA-B*35:01; [23]): 0.304 µM
Kd (HLA-B*51:01; [23]): ≥ 77.5 µM

RLLIWAYLSK
Kd (HLA-B*53:01; [18]): 10.4 µM
Kd (HLA-A*02:06; [18]): 14.8 µM
Kd (HLA-A*33:01; [18]): 4.87 µM
Kd (HLA-A*02:01 [15]; [18]): 4.99 µM
Kd (HLA-A*02:03; [18]): 17.3 µM
Kd (HLA-B*54:01; [18]): 11.3 µM
Kd (HLA-B*07:02 [1]; [18]): ≥ 69.6 µM
Kd (HLA-A*03:01 [12]; [18]): 0.000159 µM
Kd (HLA-A*11:01 [13]; [18]): 0.000114 µM
Kd (HLA-A*31:01 [14]; [18]): 0.447 µM
Kd (HLA-B*35:01; [18]): ≥ 69.9 µM
Kd (HLA-A*02:02; [18]): ≥ 42.3 µM
Kd (HLA-B*51:01; [18]): ≥ 34 µM
Kd (HLA-A*68:01; [18]): 1.47 µM
Kd (HLA-A*68:02; [18]): ≥ 40.6 µM

RNWAHSSL
Kd (HLA-B*53:01; [25]): ≥ 49.5 µM
Kd (HLA-A*02:06; [25]): ≥ 58.3 µM
Kd (HLA-A*33:01; [25]): ≥ 87.6 µM
Kd (HLA-A*02:01 [15]; [25]): ≥ 69.4 µM
Kd (HLA-A*02:03; [25]): ≥ 87.7 µM
Kd (HLA-B*54:01; [25]): ≥ 87.7 µM
Kd (HLA-B*07:02 [1]; [25]): ≥ 57.4 µM
Kd (HLA-A*03:01 [12]; [25]): ≥ 87.3 µM
Kd (HLA-B*08:01 [3]; [25]): ≥ 67.5 µM
Kd (HLA-A*11:01 [13]; [25]): ≥ 87 µM
Kd (HLA-A*01:01 [16]): 2.2 µM
Kd (HLA-A*31:01 [14]; [25]): 17.8 µM
Kd (HLA-B*35:01; [25]): ≥ 87.8 µM
Kd (HLA-A*02:02; [25]): ≥ 70 µM
Kd (HLA-B*51:01; [25]): ≥ 51.2 µM
Kd (HLA-A*68:01; [25]): ≥ 87.9 µM
Kd (HLA-A*68:02; [25]): ≥ 69.8 µM

TPNNLNKIQL
Kd (HLA-B*53:01; [18]): 2.93 µM
Kd (HLA-B*54:01; [18]): 13.5 µM
Kd (HLA-B*07:02 [1]; [18]): 0.0649 µM
Kd (HLA-B*35:01; [18]): 4.43 µM
Kd (HLA-B*51:01; [18]): ≥ 69.6 µM

TVLGLGLSLK
Kd (HLA-B*53:01; [18]): ≥ 69.9 µM
Kd (HLA-A*02:06; [18]): ≥ 51.2 µM
Kd (HLA-A*33:01; [18]): 14.4 µM
Kd (HLA-A*02:01 [15]; [18]): ≥ 69.4 µM
Kd (HLA-A*02:03; [18]): ≥ 70.4 µM
Kd (HLA-B*54:01; [18]): ≥ 69.9 µM
Kd (HLA-B*07:02 [1]; [18]): ≥ 69.6 µM
Kd (HLA-A*03:01 [12]; [18]): 0.0193 µM
Kd (HLA-A*11:01 [13]; [18]): 0.00161 µM
Kd (HLA-A*31:01 [14]; [18]): 0.898 µM
Kd (HLA-B*35:01; [18]): ≥ 24 µM
Kd (HLA-A*02:02; [18]): ≥ 61.3 µM
Kd (HLA-B*51:01; [18]): ≥ 61.8 µM
Kd (HLA-A*68:01; [18]): 0.0736 µM
Kd (HLA-A*68:02; [18]): ≥ 69.8 µM

VPYCNYTRFW
Kd (HLA-B*53:01; [26]): 0.0159 µM
Kd (HLA-B*54:01; [26]): ≥ 22.5 µM
Kd (HLA-B*07:02 [1]; [26]): 3.53 µM
Kd (HLA-B*35:01; [26]): 3.4 µM
Kd (HLA-B*51:01; [26]): 1.02 µM

YPQPQPQY
Kd (HLA-B*53:01; [23]): 5.39 µM
Kd (HLA-B*54:01; [23]): ≥ 70 µM
Kd (HLA-B*07:02 [1]; [23]): ≥ 87.3 µM
Kd (HLA-B*35:01; [23]): 0.472 µM
Kd (HLA-B*51:01; [23]): 19.5 µM
